Test results published in PMC3485190, “Crystal Structures of Lysine-Preferred Racemases, the Non-Antibiotic Selectable Markers for Transgenic Plants” (PLoS ONE, 2012).

Tests used:
[1] = biological target: T1, Bar (broad-specificity amino acid racemase) (Pseudomonas putida, UniProt I6LNY0); assay: X-ray crystallography, […] Å; type: binding; settings: covalent, internal aldimine with Lys75; pH 8.5
T1 construct: homodimer; first 25 residues (signal peptide) removed by auto-cleavage
T1 sequence (I6LNY0 26-409): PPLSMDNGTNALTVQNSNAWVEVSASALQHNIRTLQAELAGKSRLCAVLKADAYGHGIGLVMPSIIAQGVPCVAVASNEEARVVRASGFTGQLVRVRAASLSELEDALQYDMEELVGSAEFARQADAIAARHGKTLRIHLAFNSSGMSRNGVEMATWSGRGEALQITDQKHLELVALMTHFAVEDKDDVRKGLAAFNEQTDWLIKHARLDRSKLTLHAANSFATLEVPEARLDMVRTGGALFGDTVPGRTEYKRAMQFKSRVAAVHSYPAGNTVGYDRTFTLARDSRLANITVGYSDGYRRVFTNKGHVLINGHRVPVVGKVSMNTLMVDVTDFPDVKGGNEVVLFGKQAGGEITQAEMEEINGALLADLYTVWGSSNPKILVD

[2] = system: T2, NCCCC[C@H](N)C(=O)O; assay: steady-state racemization, chiral HPLC; type: biochemical, Pseudomonas putida; settings: 100 mM CHES-NaOH pH 9.0, 30 µM PLP, 50°C
T2 construct: homodimer; first 25 residues (signal peptide) removed by auto-cleavage
From the text: steady-state racemization, chiral HPLC on Bar (broad-specificity amino acid racemase)

[3] = biological target: T1, Bar (broad-specificity amino acid racemase); assay: X-ray crystallography, […] Å; type: binding; settings: co-crystallized with 4 mM L-lysine, pH 9.0; covalent external aldimine with PLP
[4] = biological target: the molecule itself; assay: crystal structure; apo Bar (4.7 mg/ml in 10% glycerol), sitting-drop vapor diffusion at 20°C, 0.1 M Tris-HCl pH 8.5, 2.0 M ammonium sulfate; space group C2, two molecules per asymmetric unit; 2.45 Å
[5] = substrate: N=C(N)NCCC[C@H](N)C(=O)O; assay: steady-state racemization, chiral HPLC; type: biochemical, Proteus mirabilis; settings: 100 mM CHES-NaOH pH 9.0, 30 µM PLP, 50°C
From the text: (§1) steady-state racemization, chiral HPLC on Lyr (lysine racemase)

[6] = substrate: NCCCC[C@H](N)C(=O)O; assay: steady-state racemization, chiral HPLC; type: biochemical, Proteus mirabilis; settings: 100 mM CHES-NaOH pH 9.0, 30 µM PLP, 50°C
From the text: as §1

[7] = biological target: the molecule itself; assay: crystal structure; Lyr (2.5 mg/ml), sitting-drop vapor diffusion at 20°C, 0.1 M sodium acetate pH 4.6, 0.05 M lithium chloride, 29% PEG 8000; space group C222(1), one molecule per asymmetric unit, dimer by a crystallographic two-fold axis; 1.74 Å

With Cc1ncc(COP(=O)(O)O)c(C=O)c1O [PLP] as the molecule, how does the “X-ray crystallography, 2.45 Å” value [1] read?
The value was “fit with an aldimine bond between the Lys75 Nζ and the PLP C4A”.

How did the Km [2] turn out when “Bar (broad-specificity amino acid racemase) (Pseudomonas putida; A393Y)” was run?
The Km was 33.9 ± 3.5 mM.

What about the kcat [2] of the same molecule?
The kcat was 24.3 ± 2.18 s⁻¹.

What about the kcat/Km [2] of the same molecule?
Its kcat/Km is 715 M⁻¹ s⁻¹.

How did the “X-ray crystallography, 3.10 Å” value [3] turn out when NCCCC[C@H](N)C(=O)O [L-Lys] was run?
The value was “The complex-Bar structure was established (Figure 7A, B) by co-crystallizing Bar with L-lysine”.

B1: Broad-specificity amino acid racemase (Bar) from Pseudomonas putida DSM84 (enzyme, UniProt I6LNY0 26-409, looked up)
chain: PPLSMDNGTNALTVQNSNAWVEVSASALQHNIRTLQAELAGKSRLCAVLKADAYGHGIGLVMPSIIAQGVPCVAVASNEEARVVRASGFTGQLVRVRAASLSELEDALQYDMEELVGSAEFARQADAIAARHGKTLRIHLAFNSSGMSRNGVEMATWSGRGEALQITDQKHLELVALMTHFAVEDKDDVRKGLAAFNEQTDWLIKHARLDRSKLTLHAANSFATLEVPEARLDMVRTGGALFGDTVPGRTEYKRAMQFKSRVAAVHSYPAGNTVGYDRTFTLARDSRLANITVGYSDGYRRVFTNKGHVLINGHRVPVVGKVSMNTLMVDVTDFPDVKGGNEVVLFGKQAGGEITQAEMEEINGALLADLYTVWGSSNPKILVD
modifications: PLP bound to Lys75 by an internal aldimine bond (apo crystal); in the crystal with L-lysine PLP forms the external aldimine with the substrate
notes: Broad-specificity amino acid racemase (Bar, E.C. 5.1.1.10), Pseudomonas putida DSM84, gene bar amplified from chromosomal DNA into pET21a; the first 25 residues contained the signal peptide and were removed by auto-cleavage; Head-to-tail homodimer in the crystal (two molecules in the asymmetric unit); also called wild-type Bar; complex-Bar (with L-lysine)
B1 was tested. Which “stoichiometry N” value [4] did it give?
The value was 2.

B2: Lysine racemase (Lyr) from Proteus mirabilis BCRC10725 (enzyme)
chain: CQQPVNYNPPATQVAQVQPAIVNNSWIEISRSALDFNVKKVQSLLGKQSSLCAVLKGDAYGHDLSLVAPIMIENNVKCIGVTNNQELKEVRDLGFKGRLMRVRNATEQEMAQATNYNVEELIGDLDMAKRLDAIAKQQNKVIPIHLALNSGGMSRNGLEVDNKSGLEKAKQISQLANLKVVGIMSHYPEEDANKVREDLARFKQQSQQVLEVMGLERNNVTLHMANTFATITVPESWLDMVRVGGIFYGDTIASTDYKRVMTFKSNIASINYYPKGNTVGYDRTYTLKRDSVLANIPVGYADGYRRVFSNAGHALIAGQRVPVLGKTSMNTVIVDITSLNNIKPGDEVVFFGKQGNSEITAEEIEDISGALFTEMSILWGATNQRVLVD
notes: also called wild-type Lyr
How did the Km [5] turn out when B2 was run?
The Km was 14.9 ± 1.0 mM.

What about the kcat [5] of the same molecule?
The kcat was 10.8 ± 0.583 s⁻¹.

What about the kcat/Km [5] of the same molecule?
Its kcat/Km is 727 M⁻¹ s⁻¹.

What about the Km [6] of the same molecule?
The Km was 21.8 ± 0.5 mM.

And the kcat [6]?
Its kcat is 55.4 ± 1.13 s⁻¹.

And the kcat/Km [6]?
Its kcat/Km is 2540 M⁻¹ s⁻¹.

And the “stoichiometry N” value [7]?
The value was 2.
